Source: US20200317768A1 (published 2020)
Numbering of substitutions follows the chain as printed.

T1: Cynomolgus monkey latent myostatin (cynomolgus monkey, UniProt Q95J86 25-266; Q95J86 267-375)
T1 construct: Latent form = complex of two propeptides and the mature dimer; also called Cyno latent myostatin
T1 sequence 1: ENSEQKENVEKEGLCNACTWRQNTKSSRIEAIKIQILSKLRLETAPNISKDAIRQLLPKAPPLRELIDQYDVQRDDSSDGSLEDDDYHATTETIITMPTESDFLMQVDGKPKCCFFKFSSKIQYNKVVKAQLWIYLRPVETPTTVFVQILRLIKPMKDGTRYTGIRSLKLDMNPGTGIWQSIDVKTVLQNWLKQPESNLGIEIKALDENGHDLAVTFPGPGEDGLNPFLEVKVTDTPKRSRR
T1 sequence 2: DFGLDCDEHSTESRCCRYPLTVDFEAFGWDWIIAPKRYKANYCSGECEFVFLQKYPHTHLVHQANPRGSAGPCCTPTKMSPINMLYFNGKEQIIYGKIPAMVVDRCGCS

T2: Human latent myostatin (human, UniProt O14793 25-266; O14793 267-375)
T2 construct: also called human myostatin latent form
T2 sequence 1: T1 sequence 1 with A52V
T2 sequence 2: T1 sequence 2

T3: Mouse latent myostatin (mouse, UniProt O08689 26-267; O08689 268-376)
T3 construct: Latent form = complex of two propeptides and the mature dimer
T3 sequence 1: T1 sequence 1 with N2G, Q5R, K6E, T19A, K25R, S26Y, K59R, V107A, E140K, N173S
T3 sequence 2: T1 sequence 2

T4: cynomolgus monkey FcγRIIa1 extracellular domain, His-tagged (cynomolgus monkey)
T4 construct: also called cyno FcγRIIa1; FcgRIIa1; not shown: C-terminal His-tag
T4 chain: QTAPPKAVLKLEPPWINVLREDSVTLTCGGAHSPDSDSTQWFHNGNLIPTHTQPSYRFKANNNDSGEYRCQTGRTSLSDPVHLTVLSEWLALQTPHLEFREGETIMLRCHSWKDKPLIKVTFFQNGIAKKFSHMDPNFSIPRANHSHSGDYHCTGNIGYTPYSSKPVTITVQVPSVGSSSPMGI

T5: cynomolgus monkey FcγRIIa2 extracellular domain, His-tagged (cynomolgus monkey)
T5 construct: also called cyno FcγRIIa2; FcgRIIa2; not shown: C-terminal His-tag
T5 chain: T4 chain with P95T, T121A, I127K, A128S, K130N, D135N, R142Q

T6: cynomolgus monkey FcγRIIa3 extracellular domain, His-tagged (cynomolgus monkey)
T6 construct: also called cyno FcγRIIa3; FcgRIIa3; not shown: C-terminal His-tag
T6 chain: T4 chain with P95T, T121A, A128S, H133P, D135N

T7: cynomolgus monkey FcγRIIb extracellular domain, His-tagged (cynomolgus monkey)
T7 construct: also called cyno FcγRIIb; cynoFcγRIIb; not shown: C-terminal His-tag
T7 chain: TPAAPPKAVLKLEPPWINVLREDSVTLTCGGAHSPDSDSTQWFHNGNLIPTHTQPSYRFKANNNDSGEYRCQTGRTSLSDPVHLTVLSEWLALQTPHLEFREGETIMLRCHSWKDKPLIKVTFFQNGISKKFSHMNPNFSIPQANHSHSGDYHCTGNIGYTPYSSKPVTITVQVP

T8: cynomolgus monkey FcγRIIIaS extracellular domain, His-tagged (cynomolgus monkey, UniProt Q8SPW2 21-206 at identity 1.00))
T8 construct: also called cyno FcγRIIIaS; FcgRIIIaS; not shown: C-terminal His-tag
T8 chain: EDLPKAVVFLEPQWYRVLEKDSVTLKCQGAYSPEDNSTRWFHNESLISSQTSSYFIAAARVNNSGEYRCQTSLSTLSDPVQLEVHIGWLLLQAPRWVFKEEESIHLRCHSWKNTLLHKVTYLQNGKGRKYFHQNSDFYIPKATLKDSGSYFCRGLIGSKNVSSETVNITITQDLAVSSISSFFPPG

T9: human FcγRIIaH extracellular domain, His-tagged (human, UniProt P12318 34-217)
T9 construct: also called human FcγRIIa (type H); FcgRIIaH; not shown: C-terminal His-tag
T9 sequence: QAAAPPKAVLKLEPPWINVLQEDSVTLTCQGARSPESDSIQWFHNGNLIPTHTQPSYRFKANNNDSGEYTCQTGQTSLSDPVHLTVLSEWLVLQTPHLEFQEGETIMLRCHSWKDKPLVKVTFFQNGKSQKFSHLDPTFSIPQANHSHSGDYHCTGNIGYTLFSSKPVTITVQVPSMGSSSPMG

T10: human FcγRIIaR extracellular domain, His-tagged (human, UniProt P12318 34-217)
T10 construct: also called human FcγRIIa (type R); FcgRIIaR; not shown: C-terminal His-tag
T10 chain: T9 sequence with H134R

T11: human FcγRIIb extracellular domain, His-tagged (human, UniProt P31994 43-217)
T11 construct: also called FcgRIIb (human); not shown: C-terminal His-tag
T11 sequence: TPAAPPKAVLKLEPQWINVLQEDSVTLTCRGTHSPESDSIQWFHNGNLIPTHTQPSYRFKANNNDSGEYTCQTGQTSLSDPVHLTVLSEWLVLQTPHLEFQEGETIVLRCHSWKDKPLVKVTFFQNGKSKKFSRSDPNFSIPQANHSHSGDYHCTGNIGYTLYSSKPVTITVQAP

B1: MS_M103205H1186-SG1/M103202L889-SK1 (antibody, human IgG1, kappa, V domains shown)
VH: QVTLKESGPVLVKPTETLTLTCTVSGIDLSHDDISWVRQAPGKGLEWVGIISYAGKKYYASWAKGRLTISKDTSKNQVVLTMTNMDPVDTATYYCARGVPAYSHGGDLWGQGTLVTVSS
VL: DIVMTQSPATLSLSPGERATLSCTSSQSVYHANWLSWFQQKPGQPPKLLIYWASTLAYGVPSRFSGSGSGTDFTLTISSLQPEDAATYYCAGGYGGGRYAFGQGTKVEIKR
notes: also called MS1032LO18-SG1
B2: MS_M103245H795-SG1/M103202L1045-SK1 (antibody, human IgG1, kappa, V domains shown)
VH: B1 VH with T23K, G49S, K56S, K57T
VL: B1 VL with S25T, A32E
notes: also called MS1032LO21-SG1
B3: M103205H795-MY449 / M103202L889-SK1 (antibody, human IgG1, kappa)
heavy: QVTLKESGPVLVKPTETLTLTCTVSGIDLSHDDISWVRQAPGKGLEWVGIISYAGSTYYASWAKGRLTISKDTSKNQVVLTMTNMDPVDTATYYCARGVPAYSHGGDLWGQGTLVTVSSASTKGPSVFPLAPSSKSTSGGTAALGCLVKDYFPEPVTVSWNSGALTSGVHTFPAVLQSSGLYSLSSVVTVPSSSLGTQTYICNVNHKPSNTKVDKKVEPKSCDKTHTCPPCPALELLTGPSVFLFPPKPKDTLMISRTPEVTCVVVDVSDEDPEVKFNWYVDGVEVHNAKTKPREEQYNSTYRVVSVLTVLHQDWLNGKEYKCKVSNKALPKPIEKTISKAKGQPREPQVYTLPPSREEMTKNQVSLTCLVKGFYPSDIAVEWESNGQPENNYKTTPPVLDSDGSFFLYSKLTVDKSRWQQGNVFSCSVMHEALHNHYTQKSLSLSP
light: DIVMTQSPATLSLSPGERATLSCTSSQSVYHANWLSWFQQKPGQPPKLLIYWASTLAYGVPSRFSGSGSGTDFTLTISSLQPEDAATYYCAGGYGGGRYAFGQGTKVEIKRTVAAPSVFIFPPSDEQLKSGTASVVCLLNNFYPREAKVQWKVDNALQSGNSQESVTEQDSKDSTYSLSSTLTLSKADYEKHKVYACEVTHQGLSSPVTKSFNRGEC

What was measured:
[1] = biological target: T1, Cynomolgus monkey latent myostatin; assay: SPR 37C; KD pH 5.8 / KD pH 7.4
Description: (§1) ProA/G (Pierce) was immobilized onto all flow cells of a CM4 chip using an amine coupling kit (GE Healthcare). All antibodies and analytes were prepared in ACES pH7.4 or pH5.8 buffer containing 20 mM ACES, 150 mM NaCl, 1.2 mM CaCl₂, 0.05% TWEEN®) 20, 0.005% NaN₃. […] Human, cyno, and mouse latent myostatin was injected at 3.125 to 50 nM prepared by two-fold serial dilution, followed by dissociation. The sensor surface was regenerated each cycle with 10 mM Glycine HCl pH1.5. Binding affinity was determined by processing and fitting the data to a 1:1 binding model using BIACORE® T200 Evaluation software, version 2.0 (GE Healthcare).

[2] = biological target: T1, Cynomolgus monkey latent myostatin; assay: SPR (BIACORE T200) 37C, pH 5.8, antibody captured by ProA/G
Description: as §1

Human latent myostatin [3] = biological target: T2, Human latent myostatin; assay: SPR (BIACORE T200) 37C, pH 7.4, antibody captured by ProA/G
Description: as §1

[4] = biological target: T1, Cynomolgus monkey latent myostatin; assay: as above
Description: as §1

Mouse latent myostatin = biological target: T3, Mouse latent myostatin; assay: as above
Description: as §1

Human latent myostatin [5] = biological target: T2, Human latent myostatin; assay: SPR 37C; KD pH 5.8 / KD pH 7.4
Description: as §1

Human latent myostatin [6] = biological target: T2, Human latent myostatin; assay: SPR (BIACORE T200) 37C, pH 5.8, antibody captured by ProA/G
Description: as §1

[7] = biological target: T4, cynomolgus monkey FcγRIIa1 …; assay: SPR (BIACORE), 25 C, antibody captured, FcgR as analyte; KD of SG1 divided by KD of variant;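 note: relative to parent M103205H795-SG1 carrying the SG1 human heavy chain constant region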
Description: (§2) The kinetic analysis of interactions between these antibodies and FcγR was carried out using BIACORE® T200 or BIACORE® 4000 (GE Healthcare). HBS-EP+ (GE Healthcare) was used as the running buffer, and the measurement temperature was set to 25° C. A chip produced by immobilizing Protein A. Protein A/G or mouse anti-human IgG kappa light chain (BD Biosciences) onto a Series S Sensor Chip CM4 or CM5 (GE Healthcare) by the amine-coupling method was used. […] After the measurement, the antibody captured on the chip was washed off by allowing reaction with 10 mM glycine-HCl, pH1.5 and 25 mM NaOH so that the chip was regenerated and used repeatedly. The sensorgrams obtained as measurement results were analyzed by the 1:1 Langmuir binding model using the BIACORE® Evaluation Software to calculate the binding rate constant ka (L/mol/s) and dissociation rate constant kd (l/s), and the dissociation constant KD (mol/L) was calculated from these values. […] Regarding such interactions, KD values were calculated using the following 1:1 binding model described in BIACORE® T100 Software Handbook BR1006-48 Edition AE.

[8] = biological target: T5, cynomolgus monkey FcγRIIa2 …; assay: as above
Description: as §2

[9] = biological target: T6, cynomolgus monkey FcγRIIa3 …; assay: as above
Description: as §2

[10] = biological target: T7, cynomolgus monkey FcγRIIb extracellular …; assay: as above
Description: as §2

[11] = biological target: T8, cynomolgus monkey FcγRIIIaS …; assay: as above
Description: as §2

[12] = biological target: T9, human FcγRIIaH extracellular domain, …; assay: as above
Description: as §2

[13] = biological target: T10, human FcγRIIaR extracellular domain, …; assay: as above
Description: as §2

[14] = biological target: T11, human FcγRIIb extracellular domain, …; assay: as above
Description: as §2

[15] = biological target: T12, human FcγRIIIaV extracellular domain, His-tagged (human, UniProt P08637 17-208); assay: as above
T12 construct: also called human FcγRIIIa (V158); FcgRIIIaV; not shown: C-terminal His-tag
T12 sequence (P08637 17-208 F176V): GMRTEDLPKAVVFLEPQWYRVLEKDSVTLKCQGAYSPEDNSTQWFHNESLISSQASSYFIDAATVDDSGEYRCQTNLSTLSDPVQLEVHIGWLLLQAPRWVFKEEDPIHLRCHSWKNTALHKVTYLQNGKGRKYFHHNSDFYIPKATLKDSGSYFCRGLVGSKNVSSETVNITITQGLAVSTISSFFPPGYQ
Description: as §2

Binder	ratio of KD at pH 5.8/pH 7.4 [1]	Kd [2] [nM]	Kd (Human latent myostatin [3]) [nM]	Kd [4] [nM]	Kd (Mouse latent myostatin) [nM]	ratio of KD at pH 5.8/pH 7.4 (Human latent myostatin [5])	Kd (Human latent myostatin [6]) [nM]	KD fold (SG1 = 1) [7] [fold]	KD fold (SG1 = 1) [8] [fold]	KD fold (SG1 = 1) [9] [fold]	KD fold (SG1 = 1) [10] [fold]	KD fold (SG1 = 1) [11] [fold]	KD fold (SG1 = 1) [12] [fold]	KD fold (SG1 = 1) [13] [fold]	KD fold (SG1 = 1) [14] [fold]	KD fold (SG1 = 1) [15] [fold]
B1	229	80.9	0.329	0.354	0.272											
B2	100	31	0.257	0.309		204	52.3									
B3								3.7	5.4	11.3	7.8	0.4	7	14.9	15.9	0.3
